Columns and labels:
[1] = target: H3-mini2-cl9+10+11+12-GCN4 (influenza A virus H3N2, UniProt O11283 17-566); assay: FACS on HEK293F [D00012 FIG. 9B]
H3-mini2 = H3-mini2 (influenza A virus H3N2, UniProt O11283 17-566); assay: FACS on HEK293F [D00012 FIG. 9B]
[2] = target: H3-mini2-cl9+10+11+12-tri (influenza A virus H3N2, UniProt O11283 17-566); assay: FACS on HEK293F [D00012 FIG. 9B]
H3-mini2-cl9+10+11+13 = H3-mini2-cl9+10+11+13 (influenza A virus H3N2, UniProt O11283 17-566); assay: FACS on HEK293F [D00012 FIG. 9B]
H3-mini2-cl9+10+11 = H3-mini2-cl9+10+11 (influenza A virus H3N2, UniProt O11283 17-566); assay: FACS on HEK293F [D00012 FIG. 9B]
H3-mini2-cl9+10+12 = H3-mini2-cl9+10+12 (influenza A virus H3N2, UniProt O11283 17-566); assay: FACS on HEK293F [D00012 FIG. 9B]
H3-mini2-cl9+10 = H3-mini2-cl9+10 (influenza A virus H3N2, UniProt O11283 17-566); assay: FACS on HEK293F [D00012 FIG. 9B]
[3] = target: H3-mini2-cl9+10+11+13-tri (influenza A virus H3N2); assay: FACS on HEK293F [D00012 FIG. 9B]
H3-mini2-cl9+13 = H3-mini2-cl9+13 (influenza A virus H3N2, UniProt O11283 17-566); assay: FACS on HEK293F [D00012 FIG. 9B]
H3-mini2-cl9+11 = H3-mini2-cl9+11 (influenza A virus H3N2, UniProt O11283 17-566); assay: FACS on HEK293F [D00012 FIG. 9B]
H3-mini2-cl9+10+11+12 = H3-mini2-cl9+10+11+12 (influenza A virus H3N2, UniProt O11283 17-566); assay: FACS on HEK293F [D00012 FIG. 9B]
H3-mini2-cl9+10+11-tri = H3-mini2-cl9+10+11-tri (influenza A virus H3N2); assay: FACS on HEK293F [D00012 FIG. 9B]
[4] = target: H3-mini2-cl9+10+11+13-GCN4 (influenza A virus H3N2); assay: FACS on HEK293F [D00012 FIG. 9B]
H3mini2-cl9+10+11-GCN4 = H3mini2-cl9+10+11-GCN4 (influenza A virus H3N2); assay: FACS on HEK293F [D00012 FIG. 9B]
H3-mini4-cl9+10+11+12+14 = H3-mini4-cl9+10+11+12+14 (influenza A virus H3N2, UniProt O11283 17-566); assay: FACS on HEK293F [D00012 FIG. 9B]
H3-mini3-cl9+10+11+12+14 = H3-mini3-cl9+10+11+12+14 (influenza A virus H3N2, UniProt O11283 17-566); assay: FACS on HEK293F [D00012 FIG. 9B]
H3 Mini-HA cluster 1+4 = H3 Mini-HA cluster 1+4 (influenza A virus H3N2, UniProt O11283 17-566); assay: FACS on HEK293F [D00010 FIG. 8B]
H3 Mini-HA cluster 1+8 = H3 Mini-HA cluster 1+8 (influenza A virus H3N2, UniProt O11283 17-566); assay: FACS on HEK293F [D00010 FIG. 8B]
H3 Mini-HA cluster 1 = H3 Mini-HA cluster 1 (influenza A virus H3N2, UniProt O11283 17-566); assay: FACS on HEK293F [D00010 FIG. 8B]
H3 Mini-HA cluster 1+3 = H3 Mini-HA cluster 1+3 (influenza A virus H3N2, UniProt O11283 17-566); assay: FACS on HEK293F [D00010 FIG. 8B]
H3 Mini-HA cluster 1+6 = H3 Mini-HA cluster 1+6 (influenza A virus H3N2, UniProt O11283 17-566); assay: FACS on HEK293F [D00010 FIG. 8B]
H3 Mini-HA cluster 1+2 = H3 Mini-HA cluster 1+2 (influenza A virus H3N2, UniProt O11283 17-566); assay: FACS on HEK293F [D00010 FIG. 8B]
H3 Mini-HA cluster 1+7 = H3 Mini-HA cluster 1+7 (influenza A virus H3N2, UniProt O11283 17-566); assay: FACS on HEK293F [D00010 FIG. 8B]
[5] = target: H1 FL HA A/Puerto Rico/8/1934 (influenza A virus H1N1, UniProt P03452 18-565); assay: FACS on HEK293F
[6] = target: miniHA cluster1+2+3+4 (A/Brisbane/59/2007) (influenza A virus H1N1, UniProt A8C8J4 18-565); assay: FACS on HEK293F
[7] = target: miniHA cluster1+3 (A/Brisbane/59/2007) (influenza A virus H1N1, UniProt A8C8J4 18-565); assay: FACS on HEK293F
[8] = target: miniHA cluster1 (A/Brisbane/59/2007) (influenza A virus H1N1, UniProt A8C8J4 18-565); assay: FACS on HEK293F

Measured: binding result

B1: CR9114 (antibody, V domains shown)
VH: QVQLVQSGAEVKKPGSSVKVSCKSSGGTSNNYAISWVRQAPGQGLDWMGGISPIFGSTAYAQKFQGRVTISADIFSNTAYMELNSLTSEDTAVYFCARHGNYYYYSGMDVWGQGTTVTVSS
VL: SYVLTQPPAVSGTPGQRVTISCSGSDSNIGRRSVNWYQQFPGTAPKLLIYSNDQRPSVVPDRFSGSKSGTSASLAISGLQSEDEAEYYCAAWDDSLKGAVFGGGTQLTVL
not listed: [5] | [6] | [7] | [8]
no binding (tested: 5 ug/ml): all other assays above

B2: CR8057 (antibody, V domains shown)
VH: EVQLVESGGGLVQPGGSLRLSCAASGFTDSVIFMSWVRQAPGKGLECVSIIYIDDSTYYADSVKGRFTISRHNSMGTVFLEMNSLRPDDTAVYYCATESGDFGDQTGPYHYYAMDV
VL: QSALTQPASVSGSPGQSITISCTGSSGDIGGYNAVSWYQHHPGKAPKLMIYEVTSRPSGVSDRFSASRSGDTASLTVSGLQAEDEAHYYCCSFADSNILI
no binding (tested: 5 ug/ml): all assays above

From patent US20160355553A1 (Janssen / Centocor, published 2016)
